These results are taken from patent publication US20250188194A1, “Method of treatment” (Nucleus Therapeutics Pty Ltd, priority 2021, published 2025).

The test system of test [1] is differentiated PLB-985 cells. The test is described as follows: Quantifying extracellular DNA by SYTOX Green stain after PMA stimulation. In kind it is cell-based, human. The settings on record: one hour pre-treatment with 10 μM DX1, 300 nM PMA two hours, plate reader; N=3. On the procedure:
FIGS. 2A-2D. DAPI and SYTOX™ Green stains support the conclusion that DX1inhibits chromatin decondensation and DNA release by differentiated PLB-985 cells stimulated with PMA. (2A) Chromatin decondensation in differentiated PLB-985 cells after stimulation with PMA±a one hour pre-treatment with 10 μM DX1 was visualized by DAPI stain. Left panel: Control cells with decondensed DAPI stain after PMA stimulation. Right panel: DX1-treated cells retaining condensed DAPI signal after PMA stimulation. Bar: 25 μm. (2B) Quantification of the percentage of differentiated PLB-985 cells with decondensed DAPI stain after PMA stimulation. […] (2C) DNA release by differentiated PLB-985 cells after stimulation with PMA±a one hour pre-treatment with 10 μM DX1 was visualized by addition of the impermeant DNA stain SYTOX™ Green. Representative images are shown. Bar: 25 μm. (2D) SYTOX™ Green signal in wells containing differentiated PLB-985 cells stimulated with PMA±a one hour pre-treatment with 10 […] was quantified by plate reader. […]
SYTOX™ Green is an impermeant fluorescent DNA stain that facilitates visualization of DNA released in NETosis. Differentiated PLB-985 cells treated with control or 10 μM DX1 and stimulated with PMA were exposed to SYTOX™ Green, and fluorescence was visualized under fluorescence microscopy and quantified by plate reader. […]

For a further test, the system named is mouse neutrophils. As to the kind of experiment: Mouse neutrophils NETosis visualization (MPO, H3Cit, PAD4 immunostaining). In kind it is cell-based. Conditions: 10 μM DX1 30 minutes, N=4. On the procedure:
Neutrophils obtained from thioglycollate-treated mice and directly plated onto 20-well plates were treated with control media or media containing 10 μM DX1 for 30 minutes, and then observed for four hours, after which cells were fixed and immunostained for markers of NETs including myeloperoxidase (MPO), H3Cit, and peptidylarginine deiminase 4 (PAD4). The percentage of NETs released per 100 cells was determined by visualization on confocal microscopy and analyzed by ImageJ (NIH).
Neutrophils obtained from thioglycollate-treated mice and directly plated onto 20-well plates were treated with control media or media containing 10 μM DX1 for 30 minutes, and then stimulated with PMA for induction of NOX-dependent NETosis for four hours, after which cells were fixed and immunostained for markers of NETs including MPO, H3Cit, and PAD4. The percentage of NETs released per 100 cells was determined by visualization on confocal fluorescence microscopy and analyzed by ImageJ (NIH). […]
Neutrophils obtained from thioglycollate-treated mice and directly plated onto 20-well plates were treated with control media or media containing 10 μM DX1 for 30 minutes, and then stimulated with a calcium ionophore (ionomycin, IM) for induction of NOX-independent NETosis for four hours, after which cells were fixed and immunostained for markers of NETs including MPO, H3Cit, and PAD4. The percentage of NETs released per 100 cells was determined by visualization on confocal fluorescence microscopy and analyzed by ImageJ (NIH).
All mouse work was conducted under a protocol approved by Monash University's Animal Ethics Committee. […] Cells were fixed in periodate-lysine-paraformaldehyde (PLP) overnight, immunostained for markers of NETs including myeloperoxidase (MPO, #AF3667 R&D Systems, MN, USA), H3Cit, and PAD4 (#AB128086, abcam), mounted in DAPI ProLong™ Gold (Molecular Probes, Thermo Fisher Scientific) and NETs were visualized by confocal fluorescence microscopy with a Nikon Ti-E inverted microscope (Nikon Instruments Inc, Melville, NY, USA). […]

B1: DX1: 3E10 derivative, a di-scFv having the sequence SEQ ID NO: 38; nuclear-penetrating anti-DNA binding protein (protein)
scFv: DIQMTQSPSSLSASLGDRATITCRASKTVSTSSYSYMHWYQQKPGQPPKLLIKYASYLESGVPSRFSGSGSGTDFTLTISSLQPEDAATYYCQHSREFPWTFGGGTKVEIKTVDAAPGGGGSGGGGSGGGGSEVQLVESGGGLVQPGGSLRLSCAASGFTFSNYGMHWVRQAPGKGLEWVSYISSGSSTIYYADSVKGRFTISRDNAKNSLYLQMNSLRAEDTAVYYCARRGLLLDYWGQGTTVTVSSASTKGPSVFPLAPLESTGSDIQMTQSPSSLSASLGDRATITCRASKTVSTSSYSYMHWYQQKPGQPPKLLIKYASYLESGVPSRFSGSGSGTDFTLTISSLQPEDAATYYCQHSREFPWTFGGGTKVEIKTVDAAPGGGGSGGGGSGGGGSEVQLVESGGGLVQPGGSLRLSCAASGFTFSNYGMHWVRQAPGKGLEWVSYISSGSSTIYYADSVKGRFTISRDNAKNSLYLQMNSLRAEDTAVYYCARRGLLLDYWGQGTTVTVSS
modifications: DX1 sequence
Regarding B1, the “SYTOX Green signal relative to control” value in test [1] was found to be 0.40±0.01. The “percentage of NETs, unstimulated neutrophils” value with mouse neutrophils (no stimulus, four hours, control 3.5%±1.0) is recorded as 4.0%±1.5. The “percentage of NETs, ionomycin (IM) stimulation (NOX-independent NETosis)” value in the test with mouse neutrophils (then IM 4 μM four hours, control 15.5%±3.1) is on record as 2.3%±0.8. Besides, in the test on mouse neutrophils (then PMA four hours, control 36.3%±11.1), the “percentage of NETs, PMA stimulation (NOX-dependent NETosis)” value was 8.3%±2.7.
